In general, Kd refers to a measure of binding affinity in units of concentration.

The target of data set [1] is T1, MLE dsRBD2 (UniProt P24785 155-257). As to the kind of experiment: ITC; n=0.93; Filter binding: 20 mM HEPES/NaOH pH 8.0, 150 mM NaCl, 5 mM MgCl2, on ice; ITC: 10 mM HEPES pH 8.0, 75 mM NaCl, 2.5 mM MgCl2, 1 mM b-mercaptoethanol, 20 C; NMR:
As to conditions: protein: recombinant; tags: N-terminal His6 removed by TEV; hairpin. For orientation: Isothermal titration calorimetry measures the heat released or taken up as one component is titrated into another.

For data set [2], the target named is T2, MLE dsRBD1,2 (UniProt P24785 1-257). As to the kind of experiment: ITC; n=0.95; Filter binding: 20 mM HEPES/NaOH pH 8.0, 150 mM NaCl, 5 mM MgCl2, on ice; ITC: 10 mM HEPES pH 8.0, 75 mM NaCl, 2.5 mM MgCl2, 1 mM b-mercaptoethanol, 20 C; NMR:
As to conditions: protein: recombinant; tags: N-terminal His6 removed by TEV; hairpin.

The target in data set [3] is T2, MLE dsRBD1,2. As to the kind of experiment: filter binding; 5 mM Mg2+; Filter binding: 20 mM HEPES/NaOH pH 8.0, 150 mM NaCl, 5 mM MgCl2, on ice; ITC: 10 mM HEPES pH 8.0, 75 mM NaCl, 2.5 mM MgCl2, 1 mM b-mercaptoethanol, 20 C; NMR:
To be noted: protein: recombinant; tags: N-terminal His6 removed by TEV; hairpin.

For data set [4], the target named is T1, MLE dsRBD2. The data set is described as above. To be noted: protein: recombinant; tags: N-terminal His6 removed by TEV; hairpin.
Data set [5] deals with MLE dsRBD1,2 linker deletion (UniProt P24785 1-257, del85-140). As to the kind of experiment: filter binding; affinity similar to dsRBD1,2; Filter binding: 20 mM HEPES/NaOH pH 8.0, 150 mM NaCl, 5 mM MgCl2, on ice; ITC: 10 mM HEPES pH 8.0, 75 mM NaCl, 2.5 mM MgCl2, 1 mM b-mercaptoethanol, 20 C; NMR:
To be noted: protein: recombinant; tags: N-terminal His6 removed by TEV; hairpin.

In data set [6] the target is T1, MLE dsRBD2. As to the kind of experiment: ITC; n=0.70; Filter binding: 20 mM HEPES/NaOH pH 8.0, 150 mM NaCl, 5 mM MgCl2, on ice; ITC: 10 mM HEPES pH 8.0, 75 mM NaCl, 2.5 mM MgCl2, 1 mM b-mercaptoethanol, 20 C; NMR:
As to conditions: protein: recombinant; tags: N-terminal His6 removed by TEV; blunt, internal A-C mismatch and G-U pairs.

In data set [7] the target is T2, MLE dsRBD1,2. As to the kind of experiment: ITC; n=0.84; Filter binding: 20 mM HEPES/NaOH pH 8.0, 150 mM NaCl, 5 mM MgCl2, on ice; ITC: 10 mM HEPES pH 8.0, 75 mM NaCl, 2.5 mM MgCl2, 1 mM b-mercaptoethanol, 20 C; NMR:
To be noted: protein: recombinant; tags: N-terminal His6 removed by TEV; blunt, internal A-C mismatch and G-U pairs.

In the next data set the target is MLE dsRBD1 (UniProt P24785 1-84). As to the kind of experiment: NMR titration; Filter binding: 20 mM HEPES/NaOH pH 8.0, 150 mM NaCl, 5 mM MgCl2, on ice; ITC: 10 mM HEPES pH 8.0, 75 mM NaCl, 2.5 mM MgCl2, 1 mM b-mercaptoethanol, 20 C; NMR:
To be noted: protein: recombinant; tags: N-terminal His6 removed by TEV; blunt, internal A-C mismatch and G-U pairs.

Data set [8] addresses T1, MLE dsRBD2. Described as above. To be noted: protein: recombinant; tags: N-terminal His6 removed by TEV; blunt, internal A-C mismatch and G-U pairs.
Another data set deals with MLE dsRBD1 K53+54E (UniProt P24785 1-84, K53E;K54E). As to the kind of experiment: NMR titration; 1.3x RNA; Filter binding: 20 mM HEPES/NaOH pH 8.0, 150 mM NaCl, 5 mM MgCl2, on ice; ITC: 10 mM HEPES pH 8.0, 75 mM NaCl, 2.5 mM MgCl2, 1 mM b-mercaptoethanol, 20 C; NMR:
To be noted: protein: recombinant; tags: N-terminal His6 removed by TEV; blunt, internal A-C mismatch and G-U pairs.

Another data set addresses MLE dsRBD1 K53E (UniProt P24785 1-84, K53E). The data set is described as above. To be noted: protein: recombinant; tags: N-terminal His6 removed by TEV; blunt, internal A-C mismatch and G-U pairs.
The target in the next data set is MLE dsRBD1 K54E (UniProt P24785 1-84, K54E). The data set is described as above. To be noted: protein: recombinant; tags: N-terminal His6 removed by TEV; blunt, internal A-C mismatch and G-U pairs.
The target of data set [9] is T2, MLE dsRBD1,2. As to the kind of experiment: NMR titration; severe line broadening; Filter binding: 20 mM HEPES/NaOH pH 8.0, 150 mM NaCl, 5 mM MgCl2, on ice; ITC: 10 mM HEPES pH 8.0, 75 mM NaCl, 2.5 mM MgCl2, 1 mM b-mercaptoethanol, 20 C; NMR:
To be noted: protein: recombinant, tags: N-terminal His6 removed by TEV.

On to GUGUAAAAUGUUGCAAUAUAUAGUAACGUUUUACGC (structured_RNA) [SL7 14merLoop], for which the Kd in the data set with MLE dsRBD2 [1] is 5.92 ± 1.31 µM; with MLE dsRBD1,2 [2], 4.66 ± 0.71 µM; in the data set with MLE dsRBD1,2 [3] it was 6.8 µM; with MLE dsRBD2 [4], around 22 µM. Besides, the binding result in data set [5] is listed as “binds”.

B1: SL7 18mer duplex (dsRNA)
RNA 1: AGACGUGUAAAAUGUUGC
RNA 2: GUAACGUUUUACGCGCCU
B1: the dissociation constant (Kd) with MLE dsRBD2 [6] was 2.71 ± 0.19 µM; with MLE dsRBD1,2 [7] it was 3.18 ± 0.48 µM; with MLE dsRBD1 it was around 470 µM; with MLE dsRBD2 [8], around 33 µM. Further, the binding result with MLE dsRBD1 K53+54E, in the data set with MLE dsRBD1 K53E and with MLE dsRBD1 K54E was “no binding” each time.

B2: UR23mer (dsRNA)
RNA 1: UAAAGUGCUUAUAGUGCAGGUAG
RNA 2: ACCUGCACUAUAAGCACUUUAAG
On to B2, for which the binding result in the data set with MLE dsRBD1,2 [9] (3' overhangs 2 nt on both ends) is on record as “binds”.

B3: SL7 23mer duplex (dsRNA)
RNA 1: UUAAAAGACGUGUAAAAUGUUGC
RNA 2: GUAACGUUUUACGCGCCUUUUCC
Take B3: the binding result with MLE dsRBD1,2 [9] (23 + 23 nt, terminal U-C mismatches, internal A-C mismatch) is reported as “binds”.
